Data: article PMC4383081

Target: microtubules polymerised from bovine brain tubulin (taxol-stabilised) (bovine) (UniProt Q6B856)
Experiment: stopped-flow mant-ADP release kinetics; kinesin·mant-ADP (1:1) mixed with varying microtubule concentrations plus MgATP, 298 K; fitted rate constants against microtubule concentration; apparent

K0.5 (apparent microtubule dissociation constant): 21.3 µM
Substance: N255K point mutant of the human monomeric kinesin K349 construct (from UniProt P33176 1-349) (domain or fragment)
